For nine molecules, binding result and Kd results are on record in publication PMC9802395, “Intratumoral nanobody–IL-2 fusions that bind the tumor extracellular matrix suppress solid tumor growth in mice” (PNAS Nexus, 2022).

Positions count from the first letter of the chain named. Names and notes keep the numbering of the source.

The chains are these.
B1: LMJ1.2G (VHH)
VHH: QVQLVETGGGLVQAGGSLRLSCAASGSTFSHSAGGWYRQAPEKQRELVAGIGSDGNINYADSVKDRFTISRDNASNTMYLQMNNLKPEDTAVYVCNIRGSYGNTYYSRWGQGTQVTVSS
B2: LMJ2.5J (VHH)
VHH: B1 VHH with G8R, A24V, D54A
B3: LMJ1.3J (VHH)
VHH: B1 VHH with E6G, G52S, D54A
B4: LMJ2.5C (VHH)
VHH: B1 VHH with I51V, G52R, T113I
B5: LMJ2.6A (VHH)
VHH: B1 VHH with Q1R, A24V, S27R, G52R, E88G
B6: NJT6-IL2 (NJT6 nanobody fused to murine IL-2) (VHH)
VHH: QVQLVETGGDLVQPGGSLRLSCAASGLTLDYYAIGWVRQAPGKEREGVSCITPQDGNTYYDDSVMGRFTILRDNAKNMVYLQMNNLKPEDTAVYFCAAAGALTLDPSEYEYWGQGTQVTVSS
notes: glycine–serine (G5S) linker; murine interleukin-2; size-matched control; also called untargeted IL-2; source: HEK293 cells, transfected, purified (TALON; some by SEC)
B7: LMJ2.5I nanobody, biotin-tagged (VHH)
VHH: B1 VHH with Q1R, A24V, G52R, T113A
notes: The text says the nanobodies for BLI were purified with C-terminal polyhistidine tags; source: E. coli WK6, periplasm, purified (Ni-NTA), then sortase-tagged with biotin; not shown: LPETG sortase motif, C-terminal, kept; His6, C-terminal, cleaved
B8: NJB2-IL2 (NJB2 nanobody fused to murine IL-2) (VHH)
VHH: B1 VHH with S32N, G52S
notes: glycine–serine (G5S) linker; murine interleukin-2; about 32 kDa; source: HEK293 cells, transfected, purified (TALON; some by SEC)
B9: LMJ1.2C nanobody, biotin-tagged (VHH)
VHH: B1 VHH with G52R
notes: as for B7

One assay deals with T1, biotinylated EIIIB (protein fragment of fibronectin splice variant EIIIB) (Homo sapiens (sequence identical in …, UniProt P02751, strain, biotin (ChromaLink NHS-biotin reagent))).
Assay: not given
Conditions: not given
Target sequence in this assay (P02751 1266-1356, change not shown): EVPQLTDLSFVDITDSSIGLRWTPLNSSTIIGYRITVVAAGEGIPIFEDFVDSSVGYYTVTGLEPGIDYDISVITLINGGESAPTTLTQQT
For the molecule B1, the binding result is recorded as “binds”.

Regarding B2, the binding result is “binds”.

For the molecule B3, the binding result was “binds”.

For B4, the binding result is given as “binds”.

B5: the binding result is given as “binds”.

Another assay deals with T1, biotinylated EIIIB (protein fragment of …). The assay is described as follows: BLI; biotinylated EIIIB immobilised on streptavidin tips (2 μg/mL); nanobody or IL-2 fusion as analyte, 0.1 to 350 nM; PBS with 0.05% Tween-20 and 1% recombinant human albumin; 1:1 binding model, global fit, double referencing. As to conditions: both partners purified.
Regarding B6, the binding result is “no binding (tested: 100 nM)”.

As for B7, the Kd was determined as 25 pM.

With B8, the Kd came to 2000 pM.

Turning to B9, the Kd amounted to 300 pM.
